Laboratory results taken from patent US20250289871A1 (AstraZeneca / MedImmune, published 2025).

Key:
[1] = molecular target: Omicron (BA.1) spike protein (pseudovirus) (SARS-CoV-2); test: cell-based or functional assay
[2] = molecular target: BA.2 spike protein (pseudovirus) (SARS-CoV-2); test: cell-based or functional assay
[3] = molecular target: BA1.1 spike protein (pseudovirus) (SARS-CoV-2); test: cell-based or functional assay
[4] = molecular target: Delta spike protein (pseudovirus) (SARS-CoV-2); test: cell-based or functional assay
[5] = molecular target: D614G spike protein (pseudovirus) (SARS-CoV-2); test: cell-based or functional assay
[6] = molecular target: SARS-CoV-2 spike RBD point mutant K444A (SARS-CoV-2, UniProt P0DTC2 334-526)
[7] = molecular target: SARS-CoV-2 spike RBD point mutant F486A (SARS-CoV-2, UniProt P0DTC2 334-526)
[8] = molecular target: T1, SARS-CoV-2 BA.2.12.1 spike protein (authentic virus) (SARS-CoV-2, UniProt P0DTC2 14-1273); test: cell-based or functional assay
[9] = molecular target: SARS-CoV-2 BA.2 spike protein (authentic virus) (SARS-CoV-2, UniProt P0DTC2 14-1273); test: cell-based or functional assay
[10] = molecular target: SARS-CoV-2 D614G spike protein (authentic virus) (SARS-CoV-2, UniProt P0DTC2 14-1273); test: cell-based or functional assay
[11] = molecular target: SARS-CoV-2 BA.1 spike protein (authentic virus) (SARS-CoV-2, UniProt P0DTC2 14-1273); test: cell-based or functional assay
[12] = molecular target: SARS-CoV-2 Alpha spike protein (authentic virus) (SARS-CoV-2, UniProt P0DTC2 14-1273); test: cell-based or functional assay
[13] = molecular target: SARS-CoV-2 BA.1.1 spike protein (authentic virus) (SARS-CoV-2, UniProt P0DTC2 14-1273); test: cell-based or functional assay
[14] = molecular target: SARS-CoV-2 BA.5 spike protein (authentic virus) (SARS-CoV-2, UniProt P0DTC2 14-1273); test: cell-based or functional assay
[15] = molecular target: BA.2.12.1 spike protein (pseudovirus) (SARS-CoV-2); test: cell-based or functional assay
[16] = molecular target: T1, SARS-CoV-2 BA.2.12.1 spike protein …; test: cell-based or functional assay; remark: listed apart in the source

Binder | EC50, pseudovirus neutralization [1] [µg/mL] | EC50, pseudovirus neutralization [2] [µg/mL] | EC50, pseudovirus neutralization [3] [µg/mL] | EC50, pseudovirus neutralization [4] [µg/mL] | EC50, pseudovirus neutralization [5] [µg/mL] | Kd [6] [nM] | Kd [7] [nM] | Authentic Virus Neutralization IC50 [8] [µg/mL] | Authentic Virus Neutralization IC50 [9] [µg/mL] | Authentic Virus Neutralization IC50 [10] [µg/mL] | Authentic Virus Neutralization IC50 [11] [µg/mL] | Authentic Virus Neutralization IC50 [12] [µg/mL] | Authentic Virus Neutralization IC50 [13] [µg/mL] | Authentic Virus Neutralization IC50 [14] [µg/mL] | IC50 (read off the curve), pseudovirus with BA.2.12.1 spike [15] [µg/mL] | IC50 (read off the curve), FRNT, authentic BA.2.12.1 virus [16] [µg/mL]
RQ41 (TM-YTE) (antibody, V domains shown) VH: EVQLVESGGGLIQPGGSLRLSCAASEIIVSRNYMSWVRQAPGKGLEWVSVIYSGGSTFYADSVKGRFTISRDNSKNTLYLQMNSLRAEDTAVYYCARDLDVVGGTDYWGQGTLVTVSS VL: not shown | 0.0062 | 0.0126 | 0.0039 | 0.0182 | 0.011 | – | – | – | – | – | – | – | – | – | – | –
RQ40 (TM-YTE) (antibody, V domains shown) VH: EVQLVESGAEVKKPGSSVKVSCKASGGTFSSYAINWVRQAPGQGLEWMGGIIPIFRTPHYAQKFQGRVTITADESTGTAYMELSSLRSEDTAVYYCASPSCGGDCPQYLKSSKLDWYFDLWGRGTLVTVSS VL: VIWMTQSPGTLSLSPGERATLSCRASQSVSSTYLAWYQQKPGQAPRLLIYGASSRATGIPDRFSGSGSGTDFTLTISRLEPEDFAVYYCQHYGSSPLTFGQGTRLEIK | 0.0064 | 0.007 | 0.0042 | 0.0112 | 0.0099 | < 0.001 | 47.1 | – | – | – | – | – | – | – | – | –
RQ43-GL-H-LO1 (TM-YTE) (antibody, V domains shown) VH: EVQLVESGGGLVQPGRSLRLSCAASGFPFDDYAIHWVRLAPGKGLEWVSSISWDSGSIGYADSVKGRFTISRDNAKNSLYLQMNSLRAEDTALYYCAKGAFPGYSSGWYYGLEVWGQGTTVTVSS VL: QSVVTQPPSASGSLGQSVTISCTGTSSDVGGYNYVSWYQQHPGKAPKLMIFEVSKRPSGVPDRFSGSKSGNTASLTVSGLQAEDEADYYCSSYAGNKGVFGGGTKLTVL | – | – | – | – | – | – | – | 0.028 | 0.031 | 0.099 | 0.011 | 0.06 | 0.007 | 0.017 | ~0.008 | –
RQ43 (TM-YTE) (antibody, V domains shown) VH: EVQLLETGGGLVQPGRSLRLSCAASGFPFDDYAIHWVRLAPGKGLEWVSSISWDSGSIGYADSVKGRFTISRDNAKNSLYLQMNSLRAEDTALYYCAKGAFPGYSSGWYYGLDVWGQGATVTVSS VL: QSVVTQPPSASGSLGQSVTISCTGTSSDVGGYNYVSWYQQHPGKAPKLMIFEVSKRPSGVPDRFSGSKSGNTASLTVSGLQAEDEADYYCSSYAGNKGVFGGGTKLTVL | 0.0078 | 0.0105 | 0.006 | 0.0259 | 0.0158 | < 0.001 | < 0.001 | – | – | – | – | – | – | – | – | –
RQ33 (TM-YTE) (antibody, V domains shown) VH: QVQLQESGPGLVKPSETLSLTCTVFGGSITSSNHYWVWIRQPPGKGLEWIGSMYYSGSTAYNPSLTNRVTISVDTSKNQFSLKLSSVTAADTAVYYCARQIGPKRPSQVADWFDPWGQGTLVTVSS VL: not shown | 0.0045 | 0.0797 | 0.0031 | 0.205 | 0.191 | 3.13 | 3.28 | – | – | – | – | – | – | – | ~0.05 | ~0.5
